This note sets out measurements from the supplement of paper PMC12042874.

± gives the uncertainty stated by the source.

A short description of the data set: amyloid nucleation score (Sup35N fusion, yeast selection) (log enrichment); library NNK1; higher = more nucleation; inactive = no reads after selection. The gist of the method:
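Psi-negative yeast expressed Sup35N fused to peptides of 20 random codons. They were induced 24 hours with 100 μM copper sulfate, grown 7 days at 30°C without adenine and uracil, and their plasmid inserts from input and output were Illumina-sequenced. The nucleation score is the DiMSum log enrichment of output over input reads, centred on the mode score of non-aggregating sequences. Sequences with under 100 input reads were excluded.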

For the substance LCCAKLRNAIKVVNQCTCGY, the amyloid nucleation score worked out at 4.4 ± 0.049.
In turn, ARLENVTHFRFLQTNLGYIE came in with an amyloid nucleation score of 0.082 ± 0.67.
Then DLSMKRVDKAPCYGNGDYRT, with -0.644 ± 0.98; and YTVSTRWRGVNIPYVKHAAL, with 0.499 ± 0.25; and YAPLLLSWAYFGV, with 1.31 ± 0.25.
For GCGFSWSLCGESPYAVRPVA the value was 0.538 ± 0.55; for FKEFTAIDKSRSVLLNLEPD, “inactive”; for GRFSVVAISHKQTFNFDWRT, 8.058 ± 0.072.
For HIRCHVRTGEAARHRQVAQY the value was 0.136 ± 0.39; for DSVVFSWVTYNTSSLSYHCG, 2.41 ± 0.2; for WVSNCIFDAGLWRSYYRMGI, 0.74 ± 0.34.
HTVNLAPRNPDPPS returned an amyloid nucleation score of 0.259 ± 0.77.
With IVVNIYVRWYPVGTGWDYLT, the amyloid nucleation score result was “inactive”.
As to CGIDKSDRIMLIKTVQLSVQ, the amyloid nucleation score amounted to 0.09 ± 0.68.
Then WFICKYNQFDHDVLFSVSTA, with 1.92 ± 0.68.
Then MIDRRKSLVEGRGRNCVSGC, with -0.646 ± 1.1.
Turning to SRRYLRVGCKVNVHTFGLYL, the amyloid nucleation score was -0.502 ± 1.
The substance SPPMSKLVMATRVLKCMDPS yielded an amyloid nucleation score of 0.086 ± 0.79.
Then RVTFLWLCLYQGMVALVNSP, with -0.156 ± 0.84.
DAVPSFTA: the amyloid nucleation score is -0.666 ± 0.69.
Then WWSRTLSLLE, with -0.035 ± 0.32; and WRGRVTKFRVLH, with 0.105 ± 0.53.
Then RQYDMDLVWKRSQNARKRS, with 0.033 ± 0.7.
Regarding GMHLNCHGCILSSV, the amyloid nucleation score was -0.021 ± 0.77.
Then LFFEVMHTFMLNMEFLLRFI, with -1.12 ± 0.94; and HHVWGFRSMLDSLHRSDCIQ, with -0.989 ± 2.7; and GRCVNVSCHIRRPQVGTPRA, with 1.07 ± 0.8.
Substance EGNMNEWTCLSCRSRAEEAR returned an amyloid nucleation score of -0.255 ± 0.9.
FNFMVNRLMVKVGLVSWRQY registered an amyloid nucleation score of 0.029 ± 1.6.
On to QDFILDNCFPEGNLVCFKGV, for which the amyloid nucleation score was found to be 0.361 ± 0.58.
GISFWSLGC registered an amyloid nucleation score of 1.07 ± 0.84.
In turn, SMVPQTMGVSQESRCYAGSC gave an amyloid nucleation score of -0.215 ± 0.65.
Then GRDDSGWPSVVVWSPGADQA, with 0.243 ± 0.56.
As to DILDSH, the amyloid nucleation score was -0.824 ± 0.38.
Then IVQTHYN, with -0.817 ± 1.7.
In the case of HVYSSVLCQQD, the amyloid nucleation score was 0.717 ± 0.65.
DLKALCCDRMKVLGFVRSPG returned an amyloid nucleation score of 1.18 ± 0.42.
Then LVESMNLIPATANRHNFTRL, with -0.672 ± 1.4.
For ACETWVVAIDMVSRSPCRCC the value was 0.113 ± 0.97; for KLDNCGCGRGCEQLDVVQSQ, 0.044 ± 0.53; for DGKKYTVMSFSEQSK, -0.368 ± 1.7.
Then IVGVEGLKPIKAPLLLNRSV, with “inactive”; and FTAKSL, with -0.324 ± 0.38; and VFVVNTTESWHNLALFWSSR, with 0.382 ± 0.45.
Substance NLRYYQFRSRSPTAWGHTMF yielded an amyloid nucleation score of -0.744 ± 0.58.
In the case of LQRGQVLALADSRFCVRCSR, the amyloid nucleation score worked out at 1.02 ± 0.57.
For CDYLNGLKGYSP the value was -0.19 ± 0.35; for VCNFLFAFSFW, 6.746 ± 0.064; for DWMNYVWTVTRIGSYSMVGI, 1 ± 0.68.
Then IDFYVCDMC, with 7.857 ± 0.058; and VSFNGFLHLFWVFILLNSPW, with 6.98 ± 0.085.
For WALISYGVWGTRTADLCRCH the value was 0.907 ± 0.65; for VYPCACVFYSLGVGLQNEET, 6.27 ± 0.089; for SVPITLIGALGVKM, 0.177 ± 0.57.
As for MYTQGMYQEDSRDGNGW, the amyloid nucleation score is -0.189 ± 0.25.
Take GSSTVNL: the amyloid nucleation score is -0.345 ± 1.7.
For KGSSAMPL the value was “inactive”.
Then YGYMGGCHFPLYLMRIDSRD, with 0.564 ± 0.75.
RDFWVSRTALMGGYWCWL returned an amyloid nucleation score of -0.175 ± 0.35.
On to NMDRVSFLR, for which the amyloid nucleation score was -0.062 ± 0.6.
For FYSFWMGRTCMFIVTRVNSA the value was -0.091 ± 0.31; for FYPLVTFFVLHHGNMNIHRV, 6.778 ± 0.066; for ATCNNI, -0.431 ± 1.4.
Then KGWWKGLRARSQGPGVSDVW, with -0.314 ± 0.57; and NGHHALLYMPFAQTC, with -0.745 ± 1.2.
Then IDCGIVRWKNRCGAYAFGVD, with -1.52 ± 2.4; and ICSGGYLVWELPSGTADQVM, with 0.25 ± 0.48; and FWLIHGMIQMGYVK, with -0.458 ± 1.2.
For the substance FISVMTLRLEKFEVVGDMKL, the amyloid nucleation score was -0.43 ± 0.39.
AWRIIPGILAFTFEEM returned an amyloid nucleation score of -0.428 ± 0.79.
Take SYYMYLN: the amyloid nucleation score is -0.19 ± 0.26.
SPTTKCLPSERSSINCNLMT: the amyloid nucleation score is 0.311 ± 0.68.
Then GSFVGRR, with 0.241 ± 0.46.
On to IYRFGFRACVDPGLRIV, for which the amyloid nucleation score entry is “inactive”.
Then GSGSVHSWHSLINSSDIFVT, with -0.682 ± 0.81; and YFAEDSCERFAPDWVRLSTR, with -0.425 ± 1.3; and LVYGKPVNHAEGSDDSTHNG, with 0.205 ± 0.6.
For the substance ISCRFAMVLGLKSWILTYV, the amyloid nucleation score result was “inactive”.
Take HDKYTLIGPRH: the amyloid nucleation score was -1.27 ± 1.2.
In turn, DYGNTVNYSSGEDVHWL came in with an amyloid nucleation score of -0.592 ± 1.7.
For the substance RVGESVI, the amyloid nucleation score came to 0.348 ± 0.55.
YPGQARNRVLCCGWKFFIDQ: the amyloid nucleation score turned out to be 3.39 ± 0.15.
Turning to SMYSNRHHDWFR, the amyloid nucleation score is -0.412 ± 1.4.
Then SQDGISMMLGMSGWRGHASV, with 0.659 ± 1; and YRRNIIL, with -0.368 ± 0.4; and EAIIEWWFHDSLASHSCTEV, with 0.58 ± 1.2.
Regarding SYISLSLISFSVGGSSHFSM, the amyloid nucleation score stood at 6.96 ± 0.077.
For ILSGRRDNSAERGRGGLWVM the value was -0.206 ± 1.2.
Substance YKESPYNYTWGTVLVGCMVI came in with an amyloid nucleation score of -0.702 ± 1.1.
Turning to VCLANGHWATHMHYIFHYLS, the amyloid nucleation score was -0.915 ± 0.73.
For WVARVMCRKNSYSMLIMWIC the value was -0.102 ± 0.22; for FFYNLFDILFFSFFRILSII, “inactive”; for SIDVSDSSRDGYSDMWSKCK, -0.164 ± 0.24.
Then ITFIVAGI, with -0.113 ± 0.21; and DDHSLQPRLPLE, with “inactive”.
For the substance LDNWYISRFCCDVMTDANVD, the amyloid nucleation score is -0.322 ± 0.8.
For QILCLTVVSVFQGYSVMIPF the value was 0.022 ± 0.32; for MNASITFSVLWVACETKCRV, 3.42 ± 0.14.
For GGSVRRDQMVYREDMQSNST the value was -0.746 ± 0.93; for VLFIFRSRFNVE, 3.47 ± 0.11; for HIKVHKFVGENWETFSRADM, -0.026 ± 1.7.
Then GWYEMASAHHMTDWYGW, with -0.337 ± 0.51.
NWSCTYRMVVS registered an amyloid nucleation score of -0.598 ± 0.22.
For NMVSCGDALR the value was -0.554 ± 1.7; for TSPGRYFCRLHVLHSGM, -0.468 ± 1.9.
RWQAFGTELYGTSWSFREYG gave an amyloid nucleation score of 0.148 ± 0.47.
For IVASYRYNYMYDLHLLSALQ the value was “inactive”; for VVRLG, 0.124 ± 1; for AVCQRNLFGIVRICRSKTR, 4.64 ± 0.055.
For IVLKVIINVCHYLTGGSTFA the value was 6.475 ± 0.062; for CLKWTVNIDGFIPDARLPRS, 3.18 ± 0.18.
Then LDWLMGGRTA, with -0.598 ± 1.7.
Substance MGNTLITLIVGSGAL registered an amyloid nucleation score of 3.44 ± 0.18.
Then DNRIIWLRGTMS, with 0.853 ± 0.92; and LMCWFAGEDPVFVYTVFIVT, with -1.49 ± 1.4; and NFRAWS, with 0.129 ± 0.93.
On to MWTFWFSVCTYLFL, for which the amyloid nucleation score came to 2.37 ± 0.2.
Substance QLCGFITCIISMSLPGYQCE yielded an amyloid nucleation score of 7.816 ± 0.052.
Then FPSLNNVNPSGFCSISSFRG, with “inactive”; and VCRRVHGSMP, with -0.236 ± 1.2; and NRLATLVDVTVMQSNTFELL, with 0.748 ± 0.35.
For TNRPAPLPSYRTILCK the value was 0.7 ± 0.97; for YFNVSWID, 1.02 ± 0.38; for TGEPKRS, 1.58 ± 0.49.
Then AHFIFCKTFTLCLLLFCKLT, with 0.057 ± 0.83; and GSVRRKRHGHLDV, with “inactive”; and PGLDFLGLLHQLISVFAIRL, with 0.111 ± 0.48.
As for NNKSEVF, the amyloid nucleation score came out at 1.46 ± 0.74.
The substance RVITYSV came in with an amyloid nucleation score of -0.016 ± 1.4.
Then SANRTHNWY, with -0.451 ± 0.44; and LLFYYLHIFMFSDDRVM, with 0.582 ± 0.56.
For GGYMGL the value was -0.158 ± 0.35; for FIRFLNTVGSWSLWMPYMVF, 0.851 ± 0.42.
ILHIEDAVMADWMHILMGSR showed an amyloid nucleation score of 0.571 ± 0.35.
For LCCKVLLALSAPGQFSVHNA the value was -0.621 ± 1.4.
Then CVTCFTLGSVRGKRTASACW, with 0.322 ± 0.18; and DFLRIRVAKKSLDMGFIV, with -0.251 ± 0.36; and FLKDIYVYVTLVCHLRSLAS, with -0.589 ± 0.49.
For SGRPGTAQLRVVLGHNQKCA the value was 1.12 ± 0.97; for VRYSGNMLSSTSVNGIFGHE, 0.067 ± 0.28.
